Measured values taken from patent US20230193235A1.

Target: RBD (a.a. 333-529) of SARS-CoV-2 S fused to the Fc region of IgG1 (SARS-CoV-2; human) (UniProt P0DTC2)
Assay: BLI, RBD-IgG1 captured on anti-human Fc sensor, dimeric sACE22 as analyte (avid)

With “untagged sACE22.v2.4 manufactured in ExpiCHO-S cells (from UniProt Q9BYF1 19-732) (receptor)” the kon was 200000 M⁻¹ s⁻¹.
